Our source for the self-cleavage values is the RNAGym collection of RNA variant scans (doi:10.1093/nar/gkz1192).

B1: CPEB3 Ribozyme (parent)
chain: UAACAGGGGGCCACAGCAGAAGCGUUCACGUCGCAGCCCCUGUCAGAUUCUGGUGAAUCUGCGAAUUCUGCUGUAUAUCUC

The variants in the series derive from B1. The experiment in a line: self-cleavage, relative activity (ratio to wild type); higher = more cleavage; in vitro, sequencing. In outline:
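Barcoded CPEB3 ribozyme mutants, produced by rounds of error-prone PCR, self-cleaved while being transcribed with T7 RNA polymerase for 5 hours at 37°C and during a subsequent 15 min DNase I step before EDTA was added. Sequencing of template-switched cDNA on Illumina gave cleaved and total reads, and DNA sequencing assigned barcodes to variants. Each variant's relative activity is its cleaved/total read fraction divided by the unmutated ribozyme's fraction, averaged across three batches. A variant needed a minimum of 5 reads.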
For the variant C68U U78C, the self-cleavage was found to be 1.03. For C68U U78A, the self-cleavage was found to be 1.01. The value for U67C U76A was 0.3; that for U67C U76C was 0.3. U66G U69A: the self-cleavage came out at 0.47. As to U66G U69C, the self-cleavage came out at 0.31. In the case of U69A U78A it was 0.92; in that of U69A U78C, 0.75. The value for U69A U78G was 0.39; that for A65U U72A was 0.23; that for A65U U72G was 0.33.

Take A65U U72C: the self-cleavage came out at 0.36. The value for U67C C71G was 0.21; that for U66C C68U was 0.39; that for U67A U72C was 0.49. In the case of U67A U72G it was 0.35; in that of U67A U72A, 0.38; in that of A65U G73A, 0.29. In the case of A65U G73U, the self-cleavage amounted to 0.57. The value for A65U U74A was 0.44; that for A65U A75G was 0.2.

Take A65U A75U: the self-cleavage amounted to 0.36. For U66C G73A, the self-cleavage amounted to 0.81. On to U66C G73C, for which the self-cleavage was determined as 0.58. For U66C G73U, the self-cleavage stood at 1.02. In the case of U67A C81G it was 0.92. The value for C68U U69G was 0.39. The value for C68U U69C was 0.43; that for C68U U69A was 0.22; that for U66G G70A was 0.27.

Take U69C U78A: the self-cleavage turned out to be 0.66. In the case of U69C U78G it was 0.61; in that of U69C U78C, 0.69. The value for U66A U80A was 0.49. For the variant U66A U80C, the self-cleavage came to 0.5. Regarding U66A U80G, the self-cleavage came out at 0.64. The value for C68G U74A was 0.43; that for U67C U78G was 0.12. The value for U67C U78C was 0.35. The value for U67C U78A was 0.29; that for U67A U76A was 0.68; that for U67A U76C was 0.58. As for A65G U67C, the self-cleavage turned out to be 0.32. For A65G U67A, the self-cleavage came to 0.3.

Consider A65G U67G, for which the self-cleavage amounted to 0.16.

On to C68A U76C, for which the self-cleavage was 0.54. As for U66G U72A, the self-cleavage turned out to be 0.24. Consider U66G U72C, for which the self-cleavage turned out to be 0.61. Turning to U67G U69C, the self-cleavage was determined as 0.5. The value for U69C C79U was 0.74; that for U69C C79G was 0.72; that for U69C G70A was 0.24. As for U69C G70U, the self-cleavage worked out at 0.25.

For U69C G70C, the self-cleavage worked out at 0.22. In the case of A65G A77G it was 0.51. Turning to A65G A77C, the self-cleavage stood at 0.45. In the case of A65G A77U it was 0.55.

Consider U66C G70U, for which the self-cleavage worked out at 0.22. The value for U66C G70A was 0.35; that for U66C C71A was 0.25. Regarding U66C C71U, the self-cleavage is 0.43. Consider C68G U72C, for which the self-cleavage was 0.48. The value for G70A U72A was 0.33; that for G70A U72C was 0.42; that for A65U U76A was 0.19.

As to A65U U76C, the self-cleavage was 0.24. With U66A U69C, the self-cleavage amounted to 0.26.

For the variant U66A U69A, the self-cleavage stood at 0.32. The value for U67C U74C was 0.37; that for U67C U74A was 0.31; that for U67G U74C was 0.6.

Take A65U U78C: the self-cleavage amounted to 0.18. The value for U66C C81A was 0.54. Take U66C C81U: the self-cleavage came out at 0.44. Regarding U66C U69C, the self-cleavage was found to be 0.34. The value for U66C U69G was 0.31; that for U66C U69A was 0.3.

Regarding U67A A77U, the self-cleavage amounted to 0.39.

Regarding U67A A77G, the self-cleavage is 0.57. In the case of A65G U69A, the self-cleavage turned out to be 0.33. In the case of A65G U69C it was 0.34; in that of U66G A75U, 0.67.

For the variant U69A U72A, the self-cleavage was found to be 0.33. The value for U69A U72C was 0.5. Regarding U69A U72G, the self-cleavage was determined as 0.49. The value for U67C C81G was 0.16. The value for U67C C81U was 0.37; that for U69G U74G was 0.97. In the case of U69G U74C it was 0.38; in that of U66C, 0.44. Consider U66G, for which the self-cleavage stood at 0.48. In the case of U66A it was 0.51. With C68A U72C, the self-cleavage is 0.2. C68A U72A: the self-cleavage came out at 0.4. In the case of U66G C68G, the self-cleavage amounted to 0.29. The value for U66G C68U was 0.38; that for U67G C79U was 0.51. The value for A65U A77G was 0.2. Turning to A65U A77U, the self-cleavage came out at 0.25. On to G70A, for which the self-cleavage came out at 0.55. The value for U66A U78A was 0.38. The value for U66A U78C was 0.31. In the case of U67A G70C it was 0.23; in that of U67A G70A, 0.45. C68U U80C: the self-cleavage is 1.08.

As to U69G U76A, the self-cleavage stood at 0.94. The value for U69G U76C was 0.98; that for U66C U72C was 0.45; that for U66C U72A was 0.39. As for U66C U72G, the self-cleavage was 0.46. The value for U66C U76A was 0.41; that for U66C U76C was 0.43.

U66C U76G: the self-cleavage worked out at 0.39. In the case of U69A U74A it was 0.55. The value for U69A U74C was 0.96; that for U67C U72G was 0.22; that for U67C U72C was 0.29. As to U67C U72A, the self-cleavage came out at 0.33. The value for U67A C68U was 0.33. In the case of A65U U69A, the self-cleavage amounted to 0.3. For the variant A65U U69C, the self-cleavage amounted to 0.45. In the case of A65G U72G it was 0.4; in that of A65G U72A, 0.4; in that of A65G U72C, 0.52. The value for A65C U80C was 0.53.

Regarding A65G U66A, the self-cleavage worked out at 0.17. The value for A65G U66C was 0.27. The value for U66A U74A was 0.85. With U66A U74C, the self-cleavage came to 0.86. In the case of U66A U74G it was 0.59; in that of U66A U67A, 0.26; in that of U66A U67C, 0.33.

On to U66C A75G, for which the self-cleavage was 0.28. In the case of U66C A75U it was 0.4; in that of U66C A75C, 0.54. The value for U66C U80G was 0.49; that for U66C U80A was 0.48; that for U66C U80C was 0.45.

Consider C68A C81A, for which the self-cleavage was 0.6. Turning to U69C G73A, the self-cleavage was found to be 0.99.

In the case of U69C G73U, the self-cleavage was 0.88. The value for U69C C71G was 0.24; that for U69C C71A was 0.2. U66C U78A: the self-cleavage was found to be 0.43.

On to U66C U78C, for which the self-cleavage was found to be 0.36. In the case of U66A U72A, the self-cleavage was 0.58. In the case of U66A U72C, the self-cleavage turned out to be 0.59. As for U67C A75U, the self-cleavage was determined as 0.26. In the case of U67C A75G it was 0.35; in that of A65G C81U, 0.63; in that of A65G C81A, 0.48. For the variant A65G U76G, the self-cleavage turned out to be 0.53.

For the variant A65G U76C, the self-cleavage worked out at 0.53. With A65G U76A, the self-cleavage came to 0.48. U67A U78C: the self-cleavage amounted to 0.52. In the case of U67A U78A it was 0.64.

On to U66C C79A, for which the self-cleavage amounted to 0.38. The value for U66C C79U was 0.39. The value for C68A U74G was 0.68; that for C68A U74A was 0.52; that for C68A U74C was 0.86. The value for U69G G73A was 0.98; that for U67A C79A was 0.82.

U69G A77G: the self-cleavage came out at 0.78. The value for U69G A77U was 0.27; that for C68U U74C was 1.19; that for A65U C81A was 0.43.
